tested on: Escherichia coli TOP10; experiment: shrunken log2 fold change of peptide-encoding DNA abundance (4.5 h post-induction vs induction); higher = less antimicrobial activity (less host growth inhibition); conditions: time post-induction: 4.5 h; library: site-saturation at positions 5, 18, 19, 20
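Note: peptides expressed intracellularly from a pBAD plasmid library in pooled LB shake-flask culture, induced with 0.3% L-arabinose, DNA abundance read by NGS, three biological replicates, DESeq2 with apeglm shrinkage.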

Row | Sequence | shrunken log2 fold change
1 | RRIRQRPPRLPRPRPRPAPLPRP | 0.451
2 | RRIRARPPRLPRPRPRPESQPRP | 0.454
3 | RRIRRRPPRLPRPRPRPGHCPRP | 0.0653
4 | RRIRQRPPRLPRPRPRPWATPRP | 0.136
5 | RRIRYRPPRLPRPRPRPVYKPRP | -0.924
6 | RRIRERPPRLPRPRPRPVTNPRP | -0.0383
7 | RRIRFRPPRLPRPRPRPRGTPRP | 0.294
8 | RRIRERPPRLPRPRPRPFPGPRP | -0.0108
9 | RRIRGRPPRLPRPRPRPADHPRP | 0.625
10 | RRIRIRPPRLPRPRPRPVWDPRP | -0.14
11 | RRIRVRPPRLPRPRPRPLSYPRP | -0.18
12 | RRIRDRPPRLPRPRPRPQPFPRP | -0.0264
13 | RRIRTRPPRLPRPRPRPICRPRP | 0.0229
14 | RRIRIRPPRLPRPRPRPGCKPRP | -0.0374
15 | RRIRDRPPRLPRPRPRPQIRPRP | -0.222
16 | RRIRYRPPRLPRPRPRPHSHPRP | -0.311
17 | RRIRIRPPRLPRPRPRPVDTPRP | -0.282
18 | RRIRNRPPRLPRPRPRPKKRPRP | 0.201
19 | RRIRNRPPRLPRPRPRPGFFPRP | 0.263
20 | RRIRHRPPRLPRPRPRPDHNPRP | -0.956
21 | RRIRFRPPRLPRPRPRPIPAPRP | -0.15
22 | RRIRVRPPRLPRPRPRPPDIPRP | 0.248
23 | RRIRFRPPRLPRPRPRPVMMPRP | -0.43
24 | RRIRWRPPRLPRPRPRPCHSPRP | -0.286
25 | RRIRERPPRLPRPRPRPQWIPRP | -0.0767

Row | Sequence | shrunken log2 fold change
26 | RRIRMRPPRLPRPRPRPPTSPRP | 1.23
27 | RRIRARPPRLPRPRPRPYWPPRP | -0.00546
28 | RRIRHRPPRLPRPRPRPIMVPRP | -0.000687
29 | RRIRIRPPRLPRPRPRPMYQPRP | -0.862
30 | RRIRDRPPRLPRPRPRPIHAPRP | 0.125
31 | RRIRFRPPRLPRPRPRPFDDPRP | -0.488
32 | RRIRLRPPRLPRPRPRPHLKPRP | -0.564
33 | RRIRHRPPRLPRPRPRPNEWPRP | -0.0925
34 | RRIRSRPPRLPRPRPRPMWCPRP | 0.136
35 | RRIRRRPPRLPRPRPRPQQAPRP | 0.115
36 | RRIRHRPPRLPRPRPRPSFHPRP | -0.495
37 | RRIRNRPPRLPRPRPRPMDLPRP | 0.00408
38 | RRIRDRPPRLPRPRPRPLSCPRP | -0.212
39 | RRIRDRPPRLPRPRPRPWAQPRP | 0.18
40 | RRIRYRPPRLPRPRPRPFFVPRP | -0.689
41 | RRIRTRPPRLPRPRPRPIMFPRP | -0.937
42 | RRIRQRPPRLPRPRPRPDYIPRP | -0.0798
43 | RRIRRRPPRLPRPRPRPEQNPRP | 0.849
44 | RRIRLRPPRLPRPRPRPVEKPRP | 0.0244
45 | RRIRNRPPRLPRPRPRPSVVPRP | -0.0462
46 | RRIRARPPRLPRPRPRPCRVPRP | -0.19
47 | RRIRLRPPRLPRPRPRPTCFPRP | -0.156
48 | RRIRKRPPRLPRPRPRPRAPPRP | 0.538
49 | RRIRFRPPRLPRPRPRPCMEPRP | -0.105
50 | RRIRERPPRLPRPRPRPAIIPRP | -0.259

Row | Sequence | shrunken log2 fold change
51 | RRIRQRPPRLPRPRPRPNVSPRP | 0.00422
52 | RRIRFRPPRLPRPRPRPHSNPRP | -0.84
53 | RRIRPRPPRLPRPRPRPNPMPRP | -0.211
54 | RRIRHRPPRLPRPRPRPIHYPRP | -0.0138
55 | RRIRYRPPRLPRPRPRPFTYPRP | -0.529
56 | RRIRKRPPRLPRPRPRPFSTPRP | -0.187
57 | RRIRPRPPRLPRPRPRPRIDPRP | -0.0848
58 | RRIRHRPPRLPRPRPRPPIKPRP | -0.16
59 | RRIRLRPPRLPRPRPRPGIRPRP | 0.0174
60 | RRIRQRPPRLPRPRPRPKVDPRP | 0.129
61 | RRIRARPPRLPRPRPRPMYIPRP | -0.345
62 | RRIRMRPPRLPRPRPRPLWCPRP | 0.147
63 | RRIRGRPPRLPRPRPRPPQSPRP | 1.27
64 | RRIRVRPPRLPRPRPRPCPAPRP | -0.121
65 | RRIRFRPPRLPRPRPRPICWPRP | -0.134
66 | RRIRHRPPRLPRPRPRPYEPPRP | -0.451
67 | RRIRSRPPRLPRPRPRPRISPRP | 0.0353
68 | RRIRTRPPRLPRPRPRPRAHPRP | -0.186
69 | RRIRTRPPRLPRPRPRPMQDPRP | 0.118
70 | RRIRRRPPRLPRPRPRPIEMPRP | 0.0754
71 | RRIRDRPPRLPRPRPRPVGAPRP | 0.825
72 | RRIRARPPRLPRPRPRPRIVPRP | 0.547
73 | RRIRKRPPRLPRPRPRPVIFPRP | 0.265
74 | RRIRRRPPRLPRPRPRPHGYPRP | 0.0169
75 | RRIRNRPPRLPRPRPRPLHIPRP | -0.363

Row | Sequence | shrunken log2 fold change
76 | RRIRVRPPRLPRPRPRPNILPRP | -0.426
77 | RRIRKRPPRLPRPRPRPRFSPRP | 0.17
78 | RRIRVRPPRLPRPRPRPHHFPRP | -0.114
79 | RRIRWRPPRLPRPRPRPYAFPRP | 0.107
80 | RRIRIRPPRLPRPRPRPSQAPRP | -0.244
81 | RRIRKRPPRLPRPRPRPKYGPRP | -0.206
82 | RRIRDRPPRLPRPRPRPMQVPRP | 0.0758
83 | RRIRVRPPRLPRPRPRPCGFPRP | 0.624
84 | RRIRERPPRLPRPRPRPVMMPRP | -0.144
85 | RRIRKRPPRLPRPRPRPLTPPRP | 0.658
86 | RRIRCRPPRLPRPRPRPFEGPRP | 0.0192
87 | RRIRVRPPRLPRPRPRPQMIPRP | -0.425
88 | RRIRERPPRLPRPRPRPIPPPRP | 0.0452
89 | RRIRWRPPRLPRPRPRPEVAPRP | 1.25
90 | RRIRFRPPRLPRPRPRPCCNPRP | -0.0548
91 | RRIRTRPPRLPRPRPRPHGYPRP | -0.267
92 | RRIRSRPPRLPRPRPRPPKVPRP | -0.211
93 | RRIRQRPPRLPRPRPRPSDPPRP | 0.114
94 | RRIRARPPRLPRPRPRPVKIPRP | 0.0527
95 | RRIRNRPPRLPRPRPRPAHRPRP | 0.264
96 | RRIRVRPPRLPRPRPRPNMAPRP | -0.38
97 | RRIRPRPPRLPRPRPRPFYMPRP | -0.324
98 | RRIRARPPRLPRPRPRPHICPRP | -0.104
99 | RRIRARPPRLPRPRPRPNCHPRP | -0.0678
100 | RRIRGRPPRLPRPRPRPAWLPRP | 0.694

Row | Sequence | shrunken log2 fold change
101 | RRIRKRPPRLPRPRPRPCYMPRP | -0.195
102 | RRIRTRPPRLPRPRPRPVLNPRP | -0.269
103 | RRIRNRPPRLPRPRPRPVKWPRP | -0.286
104 | RRIRQRPPRLPRPRPRPEKHPRP | -0.214
105 | RRIRYRPPRLPRPRPRPVVQPRP | 0.0013
106 | RRIRVRPPRLPRPRPRPSDYPRP | -0.673
107 | RRIRARPPRLPRPRPRPVGYPRP | 0.265
108 | RRIRQRPPRLPRPRPRPLMWPRP | 0.0648
109 | RRIRERPPRLPRPRPRPCIYPRP | -0.328
110 | RRIRQRPPRLPRPRPRPFPWPRP | -0.0901
111 | RRIRTRPPRLPRPRPRPKVTPRP | -0.026
112 | RRIRGRPPRLPRPRPRPEEIPRP | 0.842
113 | RRIRERPPRLPRPRPRPATPPRP | 1.31
114 | RRIRFRPPRLPRPRPRPCQVPRP | 0.084
115 | RRIRDRPPRLPRPRPRPPADPRP | 0.594
116 | RRIRWRPPRLPRPRPRPQGSPRP | -0.00843
117 | RRIRPRPPRLPRPRPRPRSQPRP | 0.263
118 | RRIRSRPPRLPRPRPRPPIKPRP | -0.221
119 | RRIRLRPPRLPRPRPRPEEEPRP | -0.00112
120 | RRIRKRPPRLPRPRPRPSCHPRP | -0.132
121 | RRIRKRPPRLPRPRPRPIGTPRP | 0.105
122 | RRIRVRPPRLPRPRPRPPMMPRP | -0.0474
123 | RRIRRRPPRLPRPRPRPNLCPRP | 0.00272
124 | RRIRFRPPRLPRPRPRPKSGPRP | 0.0565
125 | RRIRWRPPRLPRPRPRPSGTPRP | 0.0142

Row | Sequence | shrunken log2 fold change
126 | RRIRNRPPRLPRPRPRPVDRPRP | 0.148
127 | RRIRLRPPRLPRPRPRPSKSPRP | -0.0582
128 | RRIRVRPPRLPRPRPRPIGEPRP | 0.0407
129 | RRIRQRPPRLPRPRPRPWTHPRP | 0.00902
130 | RRIRRRPPRLPRPRPRPCKCPRP | -0.01
131 | RRIRDRPPRLPRPRPRPLCQPRP | 0.0964
132 | RRIRLRPPRLPRPRPRPLPKPRP | 0.393
133 | RRIRMRPPRLPRPRPRPMGGPRP | 0.131
134 | RRIRLRPPRLPRPRPRPKQAPRP | 0.152
135 | RRIRARPPRLPRPRPRPKGCPRP | 1.4
136 | RRIRNRPPRLPRPRPRPPLMPRP | -0.0745
137 | RRIRKRPPRLPRPRPRPGAFPRP | 0.369
138 | RRIRKRPPRLPRPRPRPHRHPRP | 0.023
139 | RRIRFRPPRLPRPRPRPEIFPRP | -0.139
140 | RRIRQRPPRLPRPRPRPYFAPRP | -0.292
141 | RRIRARPPRLPRPRPRPLYRPRP | -0.28
142 | RRIRVRPPRLPRPRPRPVPMPRP | 0.0779
143 | RRIRYRPPRLPRPRPRPSKWPRP | -0.155
144 | RRIRLRPPRLPRPRPRPKIEPRP | 0.0278
145 | RRIRWRPPRLPRPRPRPGVFPRP | 0.224
146 | RRIRPRPPRLPRPRPRPWKPPRP | -0.149
147 | RRIRTRPPRLPRPRPRPRDCPRP | 0.057
148 | RRIRPRPPRLPRPRPRPDICPRP | 0.0683
149 | RRIRGRPPRLPRPRPRPTNEPRP | 0.46
150 | RRIRIRPPRLPRPRPRPLAPPRP | 0.157

Reference: the supplement of paper PMC9112550, “Optimization of the antimicrobial peptide Bac7 by deep mutational scanning” (BMC Biology, 2022)
